Key:
[1] = biological target: Peptide 1958 H5N1A (EPEV) (influenza A H5N1); test: G assay titration
[2] = biological target: MBP.NS1 H3N2 (RSKV) (influenza A H3N2) (UniProt Q67253); test: G assay titration
[3] = biological target: MBP.NS1 H1N1 (RSEV) (influenza A H1N1) (UniProt A3DRP6); test: G assay titration
[4] = biological target: MBP.NS1 H5N1B (ESEV) (influenza A H5N1) (UniProt Q6DP28); test: titration, direct binding sandwich assay
[5] = biological target: MBP.NS1 H5N1A (EPEV) (influenza A H5N1) (UniProt O56264); test: titration, direct binding sandwich assay
[6] = biological target: MBP.NS1 H1N1 (RSEV) (influenza A H1N1) (UniProt A3DRP6); test: titration, direct binding sandwich assay
[7] = biological target: MBP.NS1 H5N1B (ESEV) (influenza A H5N1) (UniProt Q6DP28); test: direct binding assay titration
[8] = biological target: MBP.NS1 H5N1A (EPEV) (influenza A H5N1) (UniProt O56264); test: direct binding assay titration
[9] = biological target: MBP.NS1 H3N2 (RSKV) (influenza A H3N2) (UniProt Q67253); test: direct binding assay titration
[10] = biological target: MBP.NS1 H1N1 (RSEV) (influenza A H1N1) (UniProt A3DRP6); test: direct binding assay titration
[11] = biological target: MBP.NS1 H5N1B (ESEV) (influenza A H5N1) (UniProt Q6DP28); test: G assay titration
[12] = biological target: MBP.NS1 H5N1A (EPEV) (influenza A H5N1) (UniProt O56264); test: G assay titration
[13] = biological target: MBP.NS1 H3N2 (RSKV) (influenza A H3N2) (UniProt Q67253); test: titration, direct binding sandwich assay

MAST2 d1 (from UniProt Q6P0Q8 1098-1197)
EC50 [1]: 5.5 µg/mL | EC50 [2]: > 50 µg/mL | EC50 [3]: 2 µg/mL

Magi3 d1 (from UniProt Q5TCQ9 18-106)
EC50 [2]: 3 µg/mL | EC50 [3]: 3.1 µg/mL

NeDLG d1,2 (from UniProt Q92796 124-316)
EC50 [2]: > 50 µg/mL | EC50 [3]: 1.1 µg/mL

Outer Membrane Protein (from UniProt P08515 1-218)
EC50 [4]: 0.18 µg/mL | EC50 [5]: 12.6 µg/mL | EC50 [6]: 1.25 µg/mL | EC50 [7]: 0.8 µg/mL | EC50 [8]: 12.5 µg/mL | EC50 [9]: 3 µg/mL | EC50 [10]: 6 µg/mL | EC50 [11]: 0.2 µg/mL | EC50 [12]: 27 µg/mL | EC50 [2]: 13 µg/mL | EC50 [3]: 1.2 µg/mL

PSD95 d2 (from UniProt P31016 160-246)
EC50 [1]: 3.8 µg/mL

INADL d8 (from UniProt Q8NI35 1431-1525)
EC50 [13]: 0.869 µg/mL | EC50 [2]: 0.9 µg/mL | EC50 [3]: 3.2 µg/mL
